Results on six molecules are retold here after PMC8740593.

Numbering of substitutions follows the chain as printed.

Sequences and labels used below:
B1: P1 (dsDNA)
DNA 1: AAAGATAATAAAAATGTTTATTTCGATGCATTAATTAGTTGTTAGAGTCTTTTGTTGTGT
DNA 2: ACACAACAAAAGACTCTAACAACTAATTAATGCATCGAAATAAACATTTTTATTATCTTT
B2: P2 (dsDNA)
DNA 1: TTTTATAATTAATCACTCCTTGCTGCTTAATCACCCAATTAATCACACCTGATCTACCCA
DNA 2: TGGGTAGATCAGGTGTGATTAATTGGGTGATTAAGCAGCAAGGAGTGATTAATTATAAAA
B3: M1 (Core 1 mutated) (dsDNA)
DNA 1: B2 DNA 1 with A7G, A8G, T9C, T10C, A11G, A12G
DNA 2: B2 DNA 2 with T49C, T50C, A51G, A52G, T53C, T54C
B4: M3 (Core 3 mutated) (dsDNA)
DNA 1: B2 DNA 1 with T39C, T40C, A41G, A42G
DNA 2: B2 DNA 2 with T19C, T20C, A21G, A22G
B5: P3 (dsDNA)
DNA 1: GTAGATGGTACCCGCTGCAGTAAGCCTCCATTAAGCTTGAATTGCTGCTCCCTTGGGCGC
DNA 2: GCGCCCAAGGGAGCAGCAATTCAAGCTTAATGGAGGCTTACTGCAGCGGGTACCATCTAC
B6: Positive control (AGAMOUS intron) (dsDNA)
DNA 1: ATGTCTATTGGATTTATACCCAATGTGTTAATGGGTTGTTGACACATGTCACATGTCTGA
DNA 2: TCAGACATGTGACATGTGTCAACAACCCATTAACACATTGGGTATAAATCCAATAGACAT

For the data set, the target named is T1, QHB-DB (QHB/OsWOX5 DNA-binding domain) (Oryza sativa (rice), UniProt Q8W0F1 1-82).
T1 sequence: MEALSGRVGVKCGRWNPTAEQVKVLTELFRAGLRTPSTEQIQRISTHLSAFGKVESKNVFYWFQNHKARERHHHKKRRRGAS
In words: EMSA.
As for B1, the binding result was “no binding”.

With B2, the binding result is given as “binds”.

In the case of B3, the binding result is listed as “no binding”.

Regarding B4, the binding result is “no binding”.

Consider B5, for which the binding result is on record as “no binding”.

With B6, the binding result is “binds”.
